Source: patent US20190106487A1 (Sanofi, published 2019)
Each block holds one binder with its values, some of them ahead of it.

Key:
[1] = biological target: T1, human IL-1RAcP on 293T/17-FR cells (human, UniProt Q9NPH3 21-570); test: cell-based or functional assay
T1 sequence (looked up): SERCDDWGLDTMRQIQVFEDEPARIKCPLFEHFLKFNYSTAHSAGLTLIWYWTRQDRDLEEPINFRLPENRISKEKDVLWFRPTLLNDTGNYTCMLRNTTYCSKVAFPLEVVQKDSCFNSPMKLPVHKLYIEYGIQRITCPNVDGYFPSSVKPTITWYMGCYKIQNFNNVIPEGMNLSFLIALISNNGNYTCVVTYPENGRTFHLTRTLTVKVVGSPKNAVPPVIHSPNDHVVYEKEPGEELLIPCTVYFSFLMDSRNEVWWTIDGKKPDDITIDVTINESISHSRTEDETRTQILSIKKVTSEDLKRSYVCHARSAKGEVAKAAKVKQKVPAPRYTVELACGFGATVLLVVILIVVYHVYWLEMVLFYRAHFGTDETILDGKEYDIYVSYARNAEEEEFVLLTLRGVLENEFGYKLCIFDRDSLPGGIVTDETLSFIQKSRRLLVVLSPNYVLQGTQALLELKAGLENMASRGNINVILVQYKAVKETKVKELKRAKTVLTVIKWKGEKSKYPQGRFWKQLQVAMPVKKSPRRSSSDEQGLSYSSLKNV

mIL1RAcP-Fc = biological target: T2, mIL1RAcP-Fc (murine, UniProt Q61730 21-359); test: ELISA, primary supernatant, coated mu-IL-1RAcP-Fc
T2 construct: also called P013_04; P013-04
T2 sequence (looked up): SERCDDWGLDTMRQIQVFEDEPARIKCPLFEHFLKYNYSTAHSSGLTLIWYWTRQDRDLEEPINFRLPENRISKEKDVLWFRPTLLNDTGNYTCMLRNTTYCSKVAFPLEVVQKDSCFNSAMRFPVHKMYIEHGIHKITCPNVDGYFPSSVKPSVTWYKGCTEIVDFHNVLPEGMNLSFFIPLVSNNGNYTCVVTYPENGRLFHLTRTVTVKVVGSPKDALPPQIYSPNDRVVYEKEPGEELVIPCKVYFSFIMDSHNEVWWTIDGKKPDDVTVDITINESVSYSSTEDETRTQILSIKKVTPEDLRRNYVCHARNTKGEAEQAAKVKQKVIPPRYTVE

rhIL-1RAcP/Fc Chimera [2] = biological target: T3, rhIL-1RAcP/Fc Chimera (human, UniProt Q9NPH3 21-359); test: ELISA, recombinant purified mAb
T3 construct: also called P013_03; P013-03
T3 sequence (looked up): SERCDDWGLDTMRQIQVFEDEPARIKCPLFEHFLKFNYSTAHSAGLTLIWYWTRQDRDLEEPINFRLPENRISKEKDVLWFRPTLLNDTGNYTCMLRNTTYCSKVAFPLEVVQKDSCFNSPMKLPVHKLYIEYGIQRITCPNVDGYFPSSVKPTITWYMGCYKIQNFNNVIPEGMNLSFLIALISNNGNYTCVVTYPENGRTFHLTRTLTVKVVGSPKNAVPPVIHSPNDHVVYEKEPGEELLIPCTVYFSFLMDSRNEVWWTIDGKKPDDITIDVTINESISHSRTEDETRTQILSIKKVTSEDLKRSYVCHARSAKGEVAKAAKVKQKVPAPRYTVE

rhIL-1RAcP/Fc Chimera [3] = biological target: T3, rhIL-1RAcP/Fc Chimera; test: ELISA, primary supernatant, coated hu-IL-1RAcP-Fc
Summary of the method: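 Plates coated with 0.5 μg/mL Fc-tagged human IL-1RAcP; rabbit B-cell supernatant antibodies detected by peroxidase anti-rabbit IgG Fab2 and TMB, absorbance 450/620 nm. Parallel IL12Rβ1-Fc coating served as counterscreen to exclude tag binders.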

B1: P013.S.02.B.C03 (antibody, V domains shown)
VH: QSLEESGGRLVTPGTPLTLTCTVSGIDLSSYAMGWVRQAPGKGLEYIGIISNSGTTYYASWAKGRFTISKTSSTTVDLKMTSPTTEDTATYFCARDRYANTHGIFSLWGQGTLVTVSS
VL: DIVMTQTPASVSAPVGGTVTINCQASESIYSDLAWYQQKPGQPPKLLISFVATLESGVPSRFKGSGSGTEFTLTISDLESADAATYYCQCTYGGSGSGNGAAFGGGTEVVVK
notes: rabbit monoclonal antibody; also called P013.A.00085.G07
functional reporter gene assay (% inhibition), 0.04 µg/mL mAb [1]: 21%
functional reporter gene assay (% inhibition), 0.2 µg/mL mAb [1]: 27%
functional reporter gene assay (% inhibition), 1 µg/mL mAb [1]: 31%
functional reporter gene assay (% inhibition), 5 µg/mL mAb [1]: 30%
primary supernatant functional assay (% inh.), NF-kB luciferase reporter [1]: 29%
mu-IL1RaP ELISA (OD) (mIL1RAcP-Fc): 0.7 OD
EC50 (rhIL-1RAcP/Fc Chimera [2]): 0.847 µg/mL
hu-IL1RaP ELISA (OD) (rhIL-1RAcP/Fc Chimera [3]): 3.6 OD

B2: P013.S.01.B.C06 (antibody, V domains shown)
VH: QSVEESGGRLVTPGGSLTLTCTVSGFSLSIYAMGWFRQAPGKGLEWIGDIYAGSGSTWYASWAKGRFTISKTSTTVDLKITSPTTEDTATYFCAREIDAGYVGYGFNLWGQGTLVTVSS
VL: AQALTQTPSSVSAAVGGTVTINCQSSQSVYSDYLAWYQQKPGQPPKLLIYQASKLATGVPSRFKGSGSGTQFTLTISGVQSDDAATYYCQATYYGSGWYRAFGGGTELVVK
notes: rabbit monoclonal antibody; also called P013.A.00014.D06
functional reporter gene assay (% inhibition), 0.04 µg/mL mAb [1]: 15%
functional reporter gene assay (% inhibition), 0.2 µg/mL mAb [1]: 70%
functional reporter gene assay (% inhibition), 1 µg/mL mAb [1]: 92%
functional reporter gene assay (% inhibition), 5 µg/mL mAb [1]: 93%
primary supernatant functional assay (% inh.), NF-kB luciferase reporter [1]: 72%
mu-IL1RaP ELISA (OD) (mIL1RAcP-Fc): -0.1 OD
EC50 (rhIL-1RAcP/Fc Chimera [2]): 0.07 µg/mL
hu-IL1RaP ELISA (OD) (rhIL-1RAcP/Fc Chimera [3]): 3.4 OD

B3: P013.S.02.B.C01 (antibody, V domains shown)
VH: QSVEESGGRLVTPGGSLTLTCTVSGFSLSVYAMGWFRQAPGKGLEWIGDIYTGSGSTWYASWAKGRFTISKTSTTVDLKITSPTTEDTATYFCAREIDAGYVGYGFNLWGQGTLVTVSS
VL: AQALTQTPSSVSAAVGGTVTINCQSSQSVYSDYLVWYQQKPGQPPKLLIYQASKLASGVPSRFKGSGSGTQFTLTISGVQSDDAATYYCQATYSSTGWYRAFGGGTEVVVK
notes: rabbit monoclonal antibody; also called P013.A.00109.C12
functional reporter gene assay (% inhibition), 0.04 µg/mL mAb [1]: 19%
functional reporter gene assay (% inhibition), 0.2 µg/mL mAb [1]: 28%
functional reporter gene assay (% inhibition), 1 µg/mL mAb [1]: 73%
functional reporter gene assay (% inhibition), 5 µg/mL mAb [1]: 96%
primary supernatant functional assay (% inh.), NF-kB luciferase reporter [1]: 88%
mu-IL1RaP ELISA (OD) (mIL1RAcP-Fc): -0.1 OD
EC50 (rhIL-1RAcP/Fc Chimera [2]): 0.256 µg/mL
hu-IL1RaP ELISA (OD) (rhIL-1RAcP/Fc Chimera [3]): 3.5 OD

B4: P013.S.02.B.B03 (antibody, V domains shown)
VH: QEQLEESGGDLVKPEGSLTLTCTASGFSFSSNYWICWVRQAPGKGLELIACIYTSTGNTWYASWAKGRFTISKTSSTTVTLQMTSLTVADTATYFCARDLLVVTSFNLWGQGTLVTVSS
VL: ALVMTQTPSPVSAAVGGTVTINCQASEDIYSNLAWFQQKPGQPPKLLIYGASTLASGVPSRFSGSGSGTEFTLTISGVQSDDAATYYCLGVCTDISTDDLYNAFGGGTELVVK
notes: rabbit monoclonal antibody; also called P013.A.00045.F11
functional reporter gene assay (% inhibition), 0.04 µg/mL mAb [1]: 17%
functional reporter gene assay (% inhibition), 0.2 µg/mL mAb [1]: 31%
functional reporter gene assay (% inhibition), 1 µg/mL mAb [1]: 78%
functional reporter gene assay (% inhibition), 5 µg/mL mAb [1]: 89%
primary supernatant functional assay (% inh.), NF-kB luciferase reporter [1]: 94%
mu-IL1RaP ELISA (OD) (mIL1RAcP-Fc): -0.1 OD
EC50 (rhIL-1RAcP/Fc Chimera [2]): 0.287 µg/mL
hu-IL1RaP ELISA (OD) (rhIL-1RAcP/Fc Chimera [3]): 3.8 OD

B7: P013.S.02.B.B02 (antibody, V domains shown)
VH: LAQSGGGAEGGLVKPGGSLELCCEASGFSLSSSYWICWVRQAPGKGLEWIGCIYTGSSGNTYYASWVNGRFTLSRDIDRSTGCLQLNSLTAADTAMYYCARDANSHYMMNLWGQGTLVTVSS
VL: ALVMTQTPSPVSAAVGGTVTINCQASEDIYSNLAWFQQKPGQPPKLLIYDASTLASGVPSRFSGSGSGTEFTLTISGLQSDDAATYYCLGVYTYISADGTLVYNAFGGGTEVVVR
notes: rabbit monoclonal antibody; also called P013.A.00045.H10
functional reporter gene assay (% inhibition), 0.04 µg/mL mAb [1]: 26%
functional reporter gene assay (% inhibition), 0.2 µg/mL mAb [1]: 37%
functional reporter gene assay (% inhibition), 1 µg/mL mAb [1]: 33%
functional reporter gene assay (% inhibition), 5 µg/mL mAb [1]: 87%
primary supernatant functional assay (% inh.), NF-kB luciferase reporter [1]: 95%
mu-IL1RaP ELISA (OD) (mIL1RAcP-Fc): -0.1 OD
EC50 (rhIL-1RAcP/Fc Chimera [2]): 0.359 µg/mL
hu-IL1RaP ELISA (OD) (rhIL-1RAcP/Fc Chimera [3]): 3.4 OD

More lines, now with the values ahead:

functional reporter gene assay (% inhibition), 0.04 µg/mL mAb [1]: 9%
functional reporter gene assay (% inhibition), 0.2 µg/mL mAb [1]: 22%
functional reporter gene assay (% inhibition), 1 µg/mL mAb [1]: 54%
functional reporter gene assay (% inhibition), 5 µg/mL mAb [1]: 79%
primary supernatant functional assay (% inh.), NF-kB luciferase reporter [1]: 85%
mu-IL1RaP ELISA (OD) (mIL1RAcP-Fc): -0.1 OD
EC50 (rhIL-1RAcP/Fc Chimera [2]): 0.555 µg/mL
hu-IL1RaP ELISA (OD) (rhIL-1RAcP/Fc Chimera [3]): 3.4 OD
B5: P013.S.02.B.D01 (antibody, V domains shown)
VH: LEQSGGGAEGGLVKPGGSLELCCKASGFSLSSNYWMCWVRQAPGKGLEWIGCIYAGSSDSTYYASWVNGRFTLSRDIDQSTGCLQLNSLTAADTAMYYCASPGYGGYGYYGLWGQGTLVTVSS
VL: ALVMTQTPSPVSAAVGGTVTINCQASEDIYSNLAWFQQKPGQPPKLLIYDASTLASGVPSRFSGSGSGTEFTLTISGLQSDDAATYYCLGVYTYISPDGTDNAFGGGTEVVVK
notes: rabbit monoclonal antibody; also called P013.A.00141.G02

functional reporter gene assay (% inhibition), 0.04 µg/mL mAb [1]: 21%
functional reporter gene assay (% inhibition), 0.2 µg/mL mAb [1]: 6%
functional reporter gene assay (% inhibition), 1 µg/mL mAb [1]: 81%
functional reporter gene assay (% inhibition), 5 µg/mL mAb [1]: 96%
primary supernatant functional assay (% inh.), NF-kB luciferase reporter [1]: 93%
mu-IL1RaP ELISA (OD) (mIL1RAcP-Fc): 0 OD
EC50 (rhIL-1RAcP/Fc Chimera [2]): 0.497 µg/mL
hu-IL1RaP ELISA (OD) (rhIL-1RAcP/Fc Chimera [3]): 3.5 OD
B6: P013.S.02.B.F04 (antibody, V domains shown)
VH: QEQLVESGGDLVKPEGSLTLTCTASGFSFSSNYWICWVRQAPGKGLEWIACIYTSTDTTYYPNWAKGRFTISKTSSTTVTLQMTSLTAADTATYFCARDLLVVTSFNLWGQGTLVTVSS
VL: ALVMTQTPSPVSAAVGGTVTINCQASEDIYSNLAWFQQKPGQPPKLLIYGASTLASGVPSRFSGSGSGTEFTLTISGVQSDDAATYYCLGVCTDISADDLYNTFGGGTEVVVK
notes: rabbit monoclonal antibody; also called P013.A.00109.B02

functional reporter gene assay (% inhibition), 0.04 µg/mL mAb [1]: 1%
functional reporter gene assay (% inhibition), 0.2 µg/mL mAb [1]: 22%
functional reporter gene assay (% inhibition), 1 µg/mL mAb [1]: 58%
functional reporter gene assay (% inhibition), 5 µg/mL mAb [1]: 79%
primary supernatant functional assay (% inh.), NF-kB luciferase reporter [1]: 85%
mu-IL1RaP ELISA (OD) (mIL1RAcP-Fc): 0 OD
EC50 (rhIL-1RAcP/Fc Chimera [2]): 0.541 µg/mL
hu-IL1RaP ELISA (OD) (rhIL-1RAcP/Fc Chimera [3]): 3.3 OD
B8: P013.S.02.B.D02 (antibody, V domains shown)
VH: QSLEESGGDLVKPGASLKLSCTASGVSFSSAYWMCWVRQAPGKGLEWIACIYAGSSGSTYYASWAKGRFTISKTSSTTVTLQMTSLTAADTATYFCARHAAWFELDLWGPGTLVTVSS
VL: ALVMTQTPSPVSAAVGGTVTINCQASQNIASAYLSWYQQKPGQPPKLLIYAASTLTDGVPSRFKGSGSVTEFTLTISGVQSDDAATYYCAGYKSYTDDEFAFGGGTEVVVK
notes: rabbit monoclonal antibody; also called P013.A.00086.F05
